B1: 2H8.03 (antibody, human IgG1, V domains shown)
VH: EVQLQQSGAELVRPGTSVKLSCKASGYTFTSYWIHWVKQRPGQGLEWIGMIDPSDSYTKYNQKFKDKATLTVDTSSSTTYMHLSSLTSEDSAVYYCARSGVAFPYWGQRTLVTVSA
VL: DIVMTQSQKFMSKSVGDTVSVTCKASQDVGRNVAWYQQKSGQSPKSLIYSASHRYSGVPDRFTGSGSGTDFTLTISNVQSEDLADYFCQQYNSYPYTFGGGTRLEIK
notes: human IgG1/kappa; also called 2H8_HCvar3 + 2H8_LC
B2: 2H8.26 (antibody, human IgG1, V domains shown)
VH: EVQLQQPGTELVRPGTSVKLSCKASGYTFTNYWMHWIKQRPGQGLEWIGMIDPSDTYTKFNQNFKGKATLTVDTSSSTAYMQLNSLTSEDSAVYYCARSGVAFPYWGQGTTVTVSS
VL: DIVMTQSQKFMSTSVGDRVSVTCKASQNVGTNVAWYQQKSGQSPKALIYSASHRYSGVPDRFTGSGSGTDFTLTISNVQSEDLAEYFCQQYNSYPYTFGGGTKLEIK
notes: human IgG1/kappa; also called 2H8_HCvar2 + 2H8_LCvar5
B3: 2H8.25 (antibody, human IgG1, V domains shown)
VH: EVQLQQSGPELVKPGASVKLSCKASGYTFTNFWIHWLKQRPGQGLEWIGMIDPSDSYTKYNQKFKAKATLTVDTSSSTTYMHLSSLTSEDSAVYYCARSGVAFPYWGQRTLVTVSA
VL: DIVMTQSQKFMSTSVGDRVSVTCKASQNVGTNVAWYQQKSGQSPKALIYSASHRYSGVPDRFTGSGSGTDFTLTISNVQSEDLAEYFCQQYNSYPYTFGGGTKLEIK
notes: human IgG1/kappa; also called 2H8_HC + 2H8_LCvar5
B4: 2H8.07 (antibody, human IgG1, V domains shown)
VH: EVQLQQSGPELVKPGASVKLSCKASGYTFTNFWIHWLKQRPGQGLEWIGMIDPSDSYTKYNQKFKAKATLTVDTSSSTTYMHLSSLTSEDSAVYYCARSGVAFPYWGQRTLVTVSA
VL: DIVMTQSQKFMSTSVGDRVSVTCKASQNVGTNVAWYQQKPGQSPKALIYSASHRYSGVPDRFTGSGSGTDFTLTISNVQSEDLAEYFCQQYNSYMYTFGGGTKLEIK
notes: human IgG1/kappa; also called 2H8_HC + 2H8_LCvar2
B5: 2H8.28 (antibody, human IgG1, V domains shown)
VH: EIQLQQSGTELVRPGTSVKLSCKASGYTFTNYWMHWVKQRPGQGLEWIGMIDPSAAYTNYNQNFKGKATLTVDTSSGTAYMQLSSLTSEDSAVYYCARSGVAFPYWGQGTTVTVSS
VL: DIVMTQSQKFMSTSVGDRVSVTCKASQNVGTNVAWYQQKSGQSPKALIYSASHRYSGVPDRFTGSGSGTDFTLTISNVQSEDLAEYFCQQYNSYPYTFGGGTKLEIK
notes: human IgG1/kappa; also called 2H8_HCvar4 + 2H8_LCvar5
B6: 2H8.14 (antibody, human IgG1, V domains shown)
VH: EVQLQQPGTELVRPGTSVKLSCKASGYTFTNYWMHWIKQRPGQGLEWIGMIDPSDTYTKFNQNFKGKATLTVDTSSSTAYMQLNSLTSEDSAVYYCARSGVAFPYWGQGTTVTVSS
VL: DIQMTQSQKFMSTSIGDRVSVTCKASQNVGTNVAWYQQKPGQSPKSLIYSASHWYSGVPDRFTGSGSGTDFTLTISNVQSEDLAEYFCQQYNSYPYTFGGGTKLEIK
notes: human IgG1/kappa; also called 2H8_HCvar2 + 2H8_LCvar3
B7: 2H8.13 (antibody, human IgG1, V domains shown)
VH: EVQLQQSGPELVKPGASVKLSCKASGYTFTNFWIHWLKQRPGQGLEWIGMIDPSDSYTKYNQKFKAKATLTVDTSSSTTYMHLSSLTSEDSAVYYCARSGVAFPYWGQRTLVTVSA
VL: DIQMTQSQKFMSTSIGDRVSVTCKASQNVGTNVAWYQQKPGQSPKSLIYSASHWYSGVPDRFTGSGSGTDFTLTISNVQSEDLAEYFCQQYNSYPYTFGGGTKLEIK
notes: human IgG1/kappa; also called 2H8_HC + 2H8_LCvar3
B8: 2H8.22 (antibody, human IgG1, V domains shown)
VH: EIQLQQSGTELVRPGTSVKLSCKASGYTFTNYWMHWVKQRPGQGLEWIGMIDPSAAYTNYNQNFKGKATLTVDTSSGTAYMQLSSLTSEDSAVYYCARSGVAFPYWGQGTTVTVSS
VL: DIVMTQSQKFMSTSVGDRVSITCKASQNVGTNVAWYQQKPGQSPKALIYSASYRYSGVPDRFTGSGSGTDFTLTISNVQSEDLAEYFCQQYNSYPYTFGGGTKLEIK
notes: human IgG1/kappa; also called 2H8_HCvar4 + 2H8_LCvar4
B9: 2H8.08 (antibody, human IgG1, V domains shown)
VH: EVQLQQPGTELVRPGTSVKLSCKASGYTFTNYWMHWIKQRPGQGLEWIGMIDPSDTYTKFNQNFKGKATLTVDTSSSTAYMQLNSLTSEDSAVYYCARSGVAFPYWGQGTTVTVSS
VL: DIVMTQSQKFMSTSVGDRVSVTCKASQNVGTNVAWYQQKPGQSPKALIYSASHRYSGVPDRFTGSGSGTDFTLTISNVQSEDLAEYFCQQYNSYMYTFGGGTKLEIK
notes: human IgG1/kappa; also called 2H8_HCvar2 + 2H8_LCvar2
B10: 2H8.20 (antibody, human IgG1, V domains shown)
VH: EVQLQQPGTELVRPGTSVKLSCKASGYTFTNYWMHWIKQRPGQGLEWIGMIDPSDTYTKFNQNFKGKATLTVDTSSSTAYMQLNSLTSEDSAVYYCARSGVAFPYWGQGTTVTVSS
VL: DIVMTQSQKFMSTSVGDRVSITCKASQNVGTNVAWYQQKPGQSPKALIYSASYRYSGVPDRFTGSGSGTDFTLTISNVQSEDLAEYFCQQYNSYPYTFGGGTKLEIK
notes: human IgG1/kappa; also called 2H8_HCvar2 + 2H8_LCvar4
B11: 2H8.10 (antibody, human IgG1, V domains shown)
VH: EIQLQQSGTELVRPGTSVKLSCKASGYTFTNYWMHWVKQRPGQGLEWIGMIDPSAAYTNYNQNFKGKATLTVDTSSGTAYMQLSSLTSEDSAVYYCARSGVAFPYWGQGTTVTVSS
VL: DIVMTQSQKFMSTSVGDRVSVTCKASQNVGTNVAWYQQKPGQSPKALIYSASHRYSGVPDRFTGSGSGTDFTLTISNVQSEDLAEYFCQQYNSYMYTFGGGTKLEIK
notes: human IgG1/kappa; also called 2H8_HCvar4 + 2H8_LCvar2
B12: 2H8.33 (antibody, human IgG1, V domains shown)
VH: EVQLQQSGAELVRPGTSVKLSCKASGYTFTSYWIHWVKQRPGQGLEWIGMIDPSDSYTKYNQKFKDKATLTVDTSSSTTYMHLSSLTSEDSAVYYCARSGVAFPYWGQRTLVTVSA
VL: DIQMTQSQKFMSKSVGDRVSVTCKASQNVGSNVAWYQQKSGQSPKSLIYSASHRYSGVPDRFTGSGSGTDFTLTISNVQSEDLADYFCQQYNSYPYTFGGGTRLEIK
notes: human IgG1/kappa; also called 2H8_HCvar3 + 2H8_LCvar6
B13: 2H8.19 (antibody, human IgG1, V domains shown)
VH: EVQLQQSGPELVKPGASVKLSCKASGYTFTNFWIHWLKQRPGQGLEWIGMIDPSDSYTKYNQKFKAKATLTVDTSSSTTYMHLSSLTSEDSAVYYCARSGVAFPYWGQRTLVTVSA
VL: DIVMTQSQKFMSTSVGDRVSITCKASQNVGTNVAWYQQKPGQSPKALIYSASYRYSGVPDRFTGSGSGTDFTLTISNVQSEDLAEYFCQQYNSYPYTFGGGTKLEIK
notes: human IgG1/kappa; also called 2H8_HC + 2H8_LCvar4

A word on the Kd: it is the concentration at which binding is half-saturated. The koff is the rate constant with which the complex falls apart. The kon is a measure of how fast the partners come together.

T1 sequence (P56817 22-457): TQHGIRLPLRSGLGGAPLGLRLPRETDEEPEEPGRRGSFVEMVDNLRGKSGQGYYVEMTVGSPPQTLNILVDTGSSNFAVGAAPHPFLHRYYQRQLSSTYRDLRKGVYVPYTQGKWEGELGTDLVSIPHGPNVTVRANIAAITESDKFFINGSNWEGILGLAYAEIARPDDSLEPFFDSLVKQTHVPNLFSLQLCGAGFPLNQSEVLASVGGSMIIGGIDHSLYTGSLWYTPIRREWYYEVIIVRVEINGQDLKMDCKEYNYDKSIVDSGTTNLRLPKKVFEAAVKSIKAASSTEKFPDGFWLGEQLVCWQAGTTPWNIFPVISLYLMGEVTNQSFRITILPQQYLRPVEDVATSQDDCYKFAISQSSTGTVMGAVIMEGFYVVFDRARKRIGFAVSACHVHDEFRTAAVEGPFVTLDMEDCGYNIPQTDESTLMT

The assay concerns the target T1, recombinant BACE1 (BACE1 extracellular domain, R&D Systems Cat#931-AS) (UniProt P56817 22-457).
T1 construct: extracellular domain; also called BACE1 extracellular domain protein
In words: SPR Biacore.
B1: the Kd turned out to be 17.9 nM, the koff turned out to be 0.000289 s⁻¹ and the kon came to 16100 M⁻¹ s⁻¹.

As to B2, the Kd turned out to be 18.3 nM, the koff worked out at 0.000312 s⁻¹ and the kon stood at 17000 M⁻¹ s⁻¹.

As to B3, the equilibrium dissociation constant (Kd) turned out to be 15.2 nM, the off-rate constant (koff) is 0.000251 s⁻¹ and the on-rate (kon) was 16500 M⁻¹ s⁻¹.

B4: the dissociation constant (Kd) was found to be 20 nM, the koff is 0.000294 s⁻¹ and the kon was 14700 M⁻¹ s⁻¹.

For the molecule B5, the Kd came to 34 nM, the dissociation rate constant (koff) amounted to 0.00062 s⁻¹ and the on-rate constant (kon) came out at 18200 M⁻¹ s⁻¹.

Turning to B6, the Kd was determined as 19.2 nM, the off-rate (koff) worked out at 0.000291 s⁻¹ and the on-rate (kon) amounted to 15200 M⁻¹ s⁻¹.

Take B7: the Kd was 19.8 nM, the off-rate (koff) was 0.000308 s⁻¹ and the on-rate (kon) came out at 15500 M⁻¹ s⁻¹.

Consider B8, for which the dissociation constant (Kd) is 304 nM, the off-rate (koff) was determined as 0.0109 s⁻¹ and the kon worked out at 35900 M⁻¹ s⁻¹.

As to B9, the Kd stood at 20.9 nM, the koff was 0.000299 s⁻¹ and the kon was found to be 14300 M⁻¹ s⁻¹.

Turning to B10, the Kd came to 93.4 nM, the koff stood at 0.00147 s⁻¹ and the kon was 15800 M⁻¹ s⁻¹.

Consider B11, for which the dissociation constant (Kd) was 62 nM, the koff was 0.000878 s⁻¹ and the kon worked out at 14200 M⁻¹ s⁻¹.

In the case of B12, the Kd is 11.8 nM, the off-rate (koff) was found to be 0.000171 s⁻¹ and the kon was 14500 M⁻¹ s⁻¹.

Take B13: the dissociation constant (Kd) is 42.5 nM, the dissociation rate constant (koff) is 0.000674 s⁻¹ and the kon worked out at 15900 M⁻¹ s⁻¹.

Values taken from US20210070881A1 (DENALI THERAPEUTICS, published 2021).
